The record followed here is patent US20220177583A1.

Residue numbers refer to the chain shown, from its start.

B1: AB3-chim (antibody, V domains shown)
VH: EVKLEESGGGLVQPGGSMKLSCVASGFTFSNYWMNWVRQSPEKGLEWVAQIRLKSDNYATHYAESVKGRFTISRDDSKRSVYLQMNNLRAEDTGTYYCNDGPPSGCWGQGTTLIVSS
VL: DIQMTQSPASLSASVGETVTITCRISENIYSYLAWYQQKQGKSPQLLVYNAKILVEGVPSRFSGSGSGTQFSLKINSLQPEDFGNYYCQHHYTVPWTFGGGTKLEIK
B2: AB1-Chim (antibody, V domains shown)
VH: QVQLQQSAAELARPGASVKMSCKASGYTFTTYTMHWVKQRPGQGLEWIGFINPSSGYTDYNQKFKDRTTLTADKSSSTVYMQLSSLTSEDSAVYYCANGDYYVAYWGQGTLVTVSA
VL: QIVLTQSPAIMSASLGERVTMTCTASSSVSSTYFHWYQQKPGSSPKLWIYSTSNLASGVPRRFSGSASGTSYSLTISSMEAEDAATYYCHQYHRSPLTFGAGTKLELK
B3: AB1-3 (antibody, V domains shown)
VH: QVQLVQSGAEVKKPGASVKVSCKASGYTFTTYTMHWVRQAPGQGLEWMGFINPSSGYTDYAQKFQGRVTMTADTSTSTVYMELSSLRSEDTAVYYCANGDYYVAYWGQGTLVTVSS
VL: DIQMTQSPSSLSASVGDRVTITCTASSSVSSTYFHWYQQKPGKAPKLLIYSTSNLASGVPSRFSGSGSGTDYTLTISSLQPEDFATYYCHQYHRSPLTFGQGTKLEIK
B4: AB1-4 (antibody, V domains shown)
VH: B3 VH
VL: B3 VL with M4L, I21M, L79M, F84A
B5: AB1-6 (antibody, V domains shown)
VH: B3 VH with V20M, M48I, M70L
VL: B3 VL
B6: AB1-7 (antibody, V domains shown)
VH: B3 VH with V20M, M48I, M70L
VL: B3 VL with M4L, I21M, L79M, F84A
B7: AB1-11 (antibody, V domains shown)
VH: B3 VH with V20M, M48I, M70L, T74K
VL: B3 VL with M4L, I21M, L48W, L79M, F84A
B8: AB1-5 (antibody, V domains shown)
VH: B3 VH
VL: B3 VL with M4L, I21M, L48W, L79M, F84A
B9: AB1-8 (antibody, V domains shown)
VH: B3 VH with V20M, M48I, M70L
VL: B3 VL with M4L, I21M, L48W, L79M, F84A
B10: AB9-chim (antibody, V domains shown)
VH: EVQLQQSGPELVKPGASVKMSCKASGYRFTDYNMHWVKQSHGKSLEWIGYINPNNGGTNYNQNFKGKATLTVNKSSSTAYMELRSLTSEDSAAYYCARDYLYFFDCWGQGTTLTVSS
VL: DIQMTQSPASQSASLGESVTITCLASQTIGTWLAWYQQKPGKSPQLLIYAAASLADGVPSRFSGSGSGTRFSFKISSLQAEDFVSYYCQQLYSIPRTFGGGTKLEIK
B11: AB9-3 (antibody, V domains shown)
VH: QVQLVQSGAEVKKPGASVKMSCKASGYRFTDYNMHWVRQAPGQGLEWIGYINPNNGGTNYAQKFQGRATLTVDTSTSTAYMELSSLRSEDTAVYYCARDYLYFFDCWGQGTLLTVSS
VL: DIQMTQSPSSLSASVGDRVTITCLASQTIGTWLAWYQQKPGKAPKLLIYAAASLADGVPSRFSGSGSGTDFTFTISSLQPEDFVTYYCQQLYSIPRTFGQGTKLEIK
B12: AB9-4 (antibody, V domains shown)
VH: B11 VH
VL: B11 VL with L24R
B13: AB4-3 (antibody, V domains shown)
VH: QVQLVQSGAEVKKPGASVKVSCKASGYTFTSYTMHWVRQAPGQGLEWMGYINPSSTYTHYAQKFQGRVTMTADTSTSTVYMELSSLRSEDTAVYYCSRGELGGFAYWGQGTLVTVSS
VL: DVVMTQSPLSLPVTLGQPASISCRSSQSLVHSDGNTYLNWYQQRPGQSPRLLIYKVSNRFSGVPDRFSGSGSGTDFTLKISRVEAEDVGVYYCSQSTHVPYTFGQGTKLEIK
B14: AB4-7 (antibody, V domains shown)
VH: B13 VH with V20M, V37I, L45Q, M48I, V68A, M70L, T74K, V79A
VL: B13 VL
B15: AB4-10 (antibody, V domains shown)
VH: QVQLVQSGAEVKKPGASVKMSCKASGYTFTSYTMHWIRQAPGQGQEWIGYINPSSTYTHYIKKFKDRATLTADTSTSTAYMELSSLRSEDTAVYYCSRGELGGFAYWGQGTLVTVSS
VL: B13 VL
B16: AB4-8 (antibody, V domains shown)
VH: B13 VH with A61I, Q62K, Q65K, G66D
VL: B13 VL
B17: AB4-9 (antibody, V domains shown)
VH: B15 VH with Q45L
VL: B13 VL
B18: AB4-5 (antibody, V domains shown)
VH: B15 VH with I61A, K62Q, K65Q, D66G
VL: B13 VL
B19: AB4-11 (antibody, V domains shown)
VH: B15 VH with Q45L, T74K
VL: B13 VL
B20: AB4-12 (antibody, V domains shown)
VH: B15 VH with T74K
VL: B13 VL
B21: AB4-4 (antibody, V domains shown)
VH: B15 VH with Q45L, I61A, K62Q, K65Q, D66G
VL: B13 VL
B22: AB4-6 (antibody, V domains shown)
VH: B15 VH with Q45L, I61A, K62Q, K65Q, D66G, T74K
VL: B13 VL
B23: AB18-4 (antibody, V domains shown)
VH: QVQLVQSGAEVKKPGASVKVSCKASGYSFTGYNMNWVRQAPGQGLEWMGNIDPYYGGSTYAQKFQGRVTMTVDTSTSTVYMELSSLRSEDTAVYYCARERSGYVFSAMDYWGQGTLVTVSS
VL: DIVMTQSPDSLAVSLGERVTMNCKSSQSVLFSSNQKNYLAWYQQKPGQPPKLLIYWASTRESGVPDRFSGSGSGTDFTLTISSVQAEDVAVYYCHQYLSSRTFGQGTKLEIK
B24: AB18-6 (antibody, V domains shown)
VH: B23 VH with V20I, M48I, V68A, M70L, V79A
VL: B23 VL
B25: AB3-2 (antibody, V domains shown)
VH: EVQLLESGGGLVQPGGSMRLSCAASGFTFSNYWMNWVRQAPGKGLEWVAQIRLKSDNYATHYADSVKGRFTISRDDSKNTVYLQMNSLRAEDTGVYYCNDGPPSGCWGQGTLLTVSS
VL: DIQMTQSPSSLSASVGDRVTITCRISENIYSYLAWYQQKPGKAPKLLIYNAKILVEGVPSRFSGSGSGTDFTLTISSLQPEDFATYYCQHHYTVPWTFGQGTKLEIK
B26: AB3-5 (antibody, V domains shown)
VH: B25 VH with C106Y
VL: B25 VL with I48V, A84G
B27: AB3-4 (antibody, V domains shown)
VH: B25 VH with C106Y
VL: B25 VL
B28: AB3-3 (antibody, V domains shown)
VH: B25 VH
VL: B25 VL with I48V, A84G
B29: AB18-chim (antibody, V domains shown)
VH: QVQLKQSGPELEKPGASVKISCKASGYSFTGYNMNWVKQSNGKSLEWIGNIDPYYGGSTYNQKFTGKATLTVDKSSSTAYMQLKSLTSEDSAVYYCARERSGYVFSAMDYWGQGTSVTVSS
VL: NIMMTQSPSSLAVSAGEKVTMSCKSSQSVLFSSNQKNYLAWYQQKPGQSPRLLIYWASTRESGVPDRFTGSGSGTDFTLTISNVQAEDLAVYYCHQYLSSRTFGAGTKLELK

The target of one test is human CLDN6 fused to GFP, expressed on engineered HEK293T cells (human) (UniProt P56747). Nature of the test: FACS, 293T clone with human CLDN6, 1.5 ug Ab. (In general: A flow cytometer gives signals particle by particle.)
In turn, B1 had an FACS signal of 459000.

As to B2, the FACS signal came out at 364000.

In turn, B3 returned an FACS signal of 142000.

The molecule B4 returned an FACS signal of 197000.

As for B5, the FACS signal was 227000.

Take B6: the FACS signal is 207000.

B7 gave an FACS signal of 113000.

For the molecule B8, the FACS signal worked out at 213000.

For the molecule B9, the FACS signal is 210000.

Molecule B10 had an FACS signal of 72000.

In turn, B11 came in with an FACS signal of 24600.

In turn, B12 came in with an FACS signal of 34300.

With B13, the FACS signal was 47800.

The molecule B14 gave an FACS signal of 33300.

B15: the FACS signal was found to be 77200.

For the molecule B16, the FACS signal stood at 77600.

Take B17: the FACS signal was found to be 56900.

B18 registered an FACS signal of 43400.

On to B19, for which the FACS signal was 61200.

As to B20, the FACS signal is 86200.

Turning to B21, the FACS signal was found to be 49000.

The molecule B22 gave an FACS signal of 29200.

Turning to B23, the FACS signal came to 54400.

Regarding B24, the FACS signal came out at 58500.

Consider B25, for which the FACS signal was determined as 396000.

B26 came in with an FACS signal of 48600.

B27: the FACS signal is 55800.

B28: the FACS signal was 340000.

B29 displayed an FACS signal of 135000.

The target is the same in the next test. Description: FACS, 293T clone with human CLDN6, 0.3 ug Ab.
On to B1, for which the FACS signal came out at 267000.

As for B2, the FACS signal came out at 312000.

Regarding B3, the FACS signal turned out to be 142000.

Turning to B4, the FACS signal stood at 102000.

Turning to B5, the FACS signal worked out at 120000.

Turning to B6, the FACS signal came out at 79200.

In the case of B7, the FACS signal came to 64900.

In the case of B8, the FACS signal was determined as 138000.

Molecule B9 showed an FACS signal of 98800.

For the molecule B10, the FACS signal is 46700.

Molecule B11 gave an FACS signal of 9500.

B12 yielded an FACS signal of 15300.

Turning to B13, the FACS signal was found to be 14300.

With B14, the FACS signal turned out to be 19200.

Turning to B15, the FACS signal was found to be 50800.

Consider B16, for which the FACS signal came to 49300.

Consider B17, for which the FACS signal stood at 37200.

Turning to B18, the FACS signal was determined as 16800.

Take B19: the FACS signal was determined as 37800.

The molecule B20 had an FACS signal of 71100.

The molecule B21 gave an FACS signal of 14100.

Regarding B22, the FACS signal was found to be 10800.

As for B23, the FACS signal was determined as 32400.

On to B24, for which the FACS signal worked out at 26900.

B25 yielded an FACS signal of 309000.

Regarding B26, the FACS signal stood at 13300.

Molecule B27 returned an FACS signal of 11600.

In turn, B28 yielded an FACS signal of 251000.

As for B29, the FACS signal was found to be 73800.
